Laboratory results as given in article PMC314469, “Protein Interaction Networks by Proteome Peptide Scanning” (PLoS Biology, 2004).

T1: amphyphisin SH3 (AMPH_HUMAN), P49418
T1 chain: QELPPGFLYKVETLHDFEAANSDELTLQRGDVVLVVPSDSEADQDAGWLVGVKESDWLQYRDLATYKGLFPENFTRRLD


How the values were obtained:
[1] = target: T1, amphyphisin SH3 (AMPH_HUMAN), P49418; assay: SPOT array
[2] = target: endophilin SH3 (SH3G2_HUMAN), Q99962; assay: SPOT array

Binder	normalised SPOT signal, Boehringer light units (BLU); mean over the file's lines of this peptide [1]	normalised SPOT signal, Boehringer light units (BLU); mean over the file's lines of this peptide [2]
VEPPPRRPMSQKSE [Q96MR0 151-164]	247	258
VFQAPRRPGIGTVG [Q9UL18 20-33]	155	728
VETSLRRPQDKDAK [P36776 780-793]	26.8	43.5
VGDVLRRPSKDEPL [Q14571 2500-2513]	26	115
VFRVLRRPQEFVNR [Q9ULB8 127-140]	72.4	281
VGASLTRPSRKLRW [Q92502 483-496]	7280	269
VESILKRPSSAITR [Q9NPG6 312-325]	27.1	31.6
SGVRFHRPYRLLMH [Q9NT61 332-345]	1490	200
VGIQLRRPLFQKVT [P21709 133-146]	36.6	77.8
VGTLPSKPPFRFGQ [O60318 21-35]	169	498
SGRHFRRPDPSREP [Q9H9Q6 68-81]	23.3	15
VGTELLRPLRGLLS [Q9NX26 97-110]	320	112
VFLSFRRPFWREEH [Q96RQ9 355-368]	12.9	13.7
VHGDIFRPPRKGML [Q99805 351-364]	4010	97.6
VGASLTRPNRRLRW [Q9Y3M8 456-469]	1960	177
VGKAFIRPFREHHI [Q9GZT0 109-122]	11700	390
VFTPLRRPGMLVPK [Q9UIW6 20-33]	98	187
